Ends that are not written are not given here.
Experiments:
[1] = target: T1, IRE1α lumenal domain (IRE1αLD) (human, UniProt O75460 24-443); assay: […]
T1 sequence: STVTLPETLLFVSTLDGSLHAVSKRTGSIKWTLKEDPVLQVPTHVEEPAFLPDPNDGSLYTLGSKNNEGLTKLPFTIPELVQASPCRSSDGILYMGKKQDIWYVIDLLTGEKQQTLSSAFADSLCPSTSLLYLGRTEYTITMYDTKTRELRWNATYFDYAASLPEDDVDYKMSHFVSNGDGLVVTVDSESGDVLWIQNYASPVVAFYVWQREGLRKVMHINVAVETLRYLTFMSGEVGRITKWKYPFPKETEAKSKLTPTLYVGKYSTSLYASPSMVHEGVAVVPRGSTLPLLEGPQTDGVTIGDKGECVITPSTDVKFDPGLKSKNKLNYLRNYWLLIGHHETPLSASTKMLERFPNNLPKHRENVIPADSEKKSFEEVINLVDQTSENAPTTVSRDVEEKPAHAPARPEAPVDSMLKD

[2] = target: T1, IRE1α lumenal domain (IRE1αLD); assay: […]; remark: listed apart in the source
[3] = target: T1, IRE1α lumenal domain (IRE1αLD); assay: fluorescence polarisation

B1: CTxA1_(I124-R141) peptide (peptide)
peptide: IYGWYRVHFGVLDEQLHR
Kd [1]: 44 ± 5 µM

B2: SARS-CoV2 ORF8 peptide 39-48 (peptide)
peptide: IHFYSKWYIR
binding result [1]: binds

B3: IRE1α_(Y358-L369) peptide (peptide)
peptide: YWLLIGHHETPL
modifications: not fully specified (N-terminus)
Ki [2]: 220 ± 30 µM | Kd [3]: 190 ± 20 µM

B4: heat-labile enterotoxin (LTx) peptide 124-132 (peptide)
peptide: IYGWYRVNF
binding result [1]: binds

B5: CTxA1_(I124-F132) peptide (peptide)
peptide: IYGWYRVHF
binding result [1]: binds
